The values below come from patent US20070258981A1 (published 2007).

Substitutions are numbered along the chain they refer to. In names and notes the source's numbering stands.

For orientation: Kd means the concentration at which binding is half-saturated. A higher Kd goes with weaker binding. By koff is commonly meant the rate constant with which the complex falls apart. A lower koff goes with a long-lived complex. A word on the kon: it is the second-order rate constant of association.

The target in assay [1] is T1, human CD22 (hCD22) expressed on the cell surface (human, UniProt P20273 20-847).
T1 construct: whole, on cells; Used as capture agent in the BHK-CD22 cell ELISA and as target in flow cytometry; also called BHK-CD22; hCD22 expressing CHO cells
The experiment in a line: BHK-CD22 cell ELISA. (An ELISA detects its analyte on a solid surface through an enzyme-linked reagent.)

In assay [2] the target is hCD22 immobilised on a CM5 sensor chip (BIAcore ligand) (human, UniProt P20273 20-687, limits assumed). Put plainly: BIAcore 3000 SPR; hCD22 amine-coupled to CM5 chip, IgG injected; global 1:1 fit. The procedure: Binding affinity of HB22.7 and RHOv2ACD/RKA were determined on a BIAcore 3000 instrument (BIAcore, Inc., Uppsala, Sweden). The ligand, hCD22, was prepared at 50 nM in 10 mM NaOAc, pH4 buffer. It was injected onto an EDC/NHS-activated CM5 sensor chip (BIAcore, Inc. Uppsala, Sweden) using a standard immobilization protocol. Following this, any unreacted active ester moieties were quenched using 1M Et-NH2 (ethanolamine; coupling reagents purchased from BIAcore, Inc.). A total of 535 and 689 RUs hCD22 remained bound to two sensor chip surfaces used in these experiments. Separately, a blank surface was prepared on each sensor chip using the identical protocol (minus protein). The blank surfaces were used as a reference cell in the experiments, and served to correct for both non-specific binding and some housekeeping artifacts.
For the kinetic experiments, HB22.7 and RHOv2ACD/RKA were prepared as two dilution series, starting at 22 nM and 100 nM, then diluted three- and two-fold, respectively, down to final concentrations of 0.03 nM and 0.39 nM in HBS-EP buffer (BIAcore, Inc., consisting of the following: 10 mM HEPES buffer, pH7.4, 150 mM NaCl, 3 mM EDTA, and 0.005% P20). Each concentration of IgG was then injected over both the CD22 and reference cell surfaces, which are connected in series. Between injections, surfaces were regenerated with a 1-minute injection of 3M MgCl2.
A general note: In SPR one partner is held on a chip, and binding of the other changes the refractive index at the surface.

The target of assay [3] is T1, human CD22 (hCD22) expressed on the …. Put plainly: binding to BHK-hCD22 cells. The procedure: The ability of chHB227 and its humanized variants to bind hCD22 was assessed in a cell based CD22 binding assay utilizing BHK cells expressing cell-surface human CD22 as a capture agent. Untransfected BHK cells not expressing hCD22 served as a control for non-specific binding. The BHK and BHK-CD22 lines were grown in DMEM supplemented with 10% Fetal Clone I and antibiotics. G418/Geneticin (0.75 mg/ml) was also added to the growth medium for BHK-CD22 only. The standard NCI protocol was used for the binding assay.

B1: humanized antibody HB227RHF + HB227RKC (antibody, V domains shown)
VH: QVQLQESGPALVKPTQTLTLTCTVSGFSLSDYGVNWIRQPPGKALEWLGIIWGDGRTDYNSALKSRLSISKDNSKNQVVLRMTNVDPVDTATYFCARAPGNRAMEYWGQGTVVTVSS
VL: DIVMTQSPSSLSASVGDRVTITCKASQSVTNDVAWYQQKPGKAPKLLIYYASNRYTGVPDRFSGSGYGTDFTLTISSLQPEDFATYFCQQDYRSPWTFGGGTKVEIKR
notes: Human IgG1/kappa, COS-7 supernatant; also called RHF+RKC; humanized (RHF+RKC) antibody
For the molecule B1, in assay [1], the binding result was “binds”.

B2: antibody of chimeric HB22.7 heavy chain (chH) with HB227RKA light chain variable region (antibody, V domains shown)
VH: QVQLKESGPGLVAPSQSLSITCTVSGFSLSDYGVNWVRQIPGKGLEWLGIIWGDGRTDYNSALKSRLNISKDNSKSQVFLKMNSLKADDTARYYCARAPGNRAMEYWGQGTSVTVSS
VL: DIVMTQSPSSLSASVGDRVTITCKASQSVTNDVAWYQQKPGKAPKLLIYYASNRYTGVPSRFSGSGSGTDFTLTISSLQPEDFATYYCQQDYRSPWTFGGGTKVEIK
notes: Human IgG1/kappa, COS-7 supernatant; VL entry may include the DPK018 leader; also called chH+RKA
Consider B2, for which the binding result in assay [1] was “binds”.

B3: humanized anti-hCD22 antibody RHOv2ACD/RKA (antibody, V domains shown)
VH: QVQLEESGGGVVRPGRSLRLSCAASGFTFSDYGVNWIRQAPGKGLEWVTIIWGDGRTDYNSALKSRFTVSRNNSNNTLSLQMNSLTTEDTAVYYCVRAPGNRAMEYWGQGVLVTVSS
VL: B2 VL
modifications: Labelled with Alexa Fluor 488 or 647 in some flow cytometry assays; unlabelled IgG in the BIAcore runs.
notes: VH keeps only the D30S back mutation; Labelled with Alexa Fluor 488 or 647 in some flow cytometry assays; also called HB227RHOv2ACD + HB227RKA; RHOvACD/RKA
Take B3: in assay [2], the Kd is 22 nM, the off-rate constant (koff) stood at 0.00069 s⁻¹ and the kon came out at 32000 M⁻¹ s⁻¹.

B4: humanized antibody HB227RHOv2ABCD + HB227RKA (antibody, V domains shown)
VH: B3 VH with S30D
VL: B2 VL
notes: VH without back mutations; Human IgG1/kappa, COS-7 supernatant; also called RHOv2ABCD+RKA
In the case of B4, the binding result in assay [3] is “binds”.
